# Experimental data: PMC12365907, “https://orcid.org/0000-0002-7156-8846 Tungsirisurp Sireethorn Conceptualization Methodology Formal analysis Investigation Data curation Writing – original draft Writing – review & editing”
# How the values were obtained:
# [1] = target: T1, SARS-CoV-2 spike receptor binding domain (RBD) (SARS-CoV-2, UniProt P0DTC2 319-541); experiment: ELONA; settings: protein: commercial; label: 5'-biotin
# [2] = target: T1, SARS-CoV-2 spike receptor binding …; experiment: fluorescent strand displacement from beads; settings: protein: commercial
Binder,Kd [1],binding result [2]
RBD-1 aptamer (ssDNA) DNA: CAGCACCGACCTTGTGCTTTGGGAGTGCTGGTCCAAGGGCGTTAATGGACA,4.58 ± 1.15 nM,
RBD-1/MM-T9 antisense duplex (mixed) DNA 1: CAGCACCGACCTTGTGCTTTGGGAGTGCTGGTCCAAGGGCGTTAATGGACA DNA 2: GTCGGTGCAG,,binds
RBD-1/MM-T2 antisense duplex (mixed) DNA 1: CAGCACCGACCTTGTGCTTTGGGAGTGCTGGTCCAAGGGCGTTAATGGACA DNA 2: GACGGTGCTG,,binds
RBD-1/CM antisense duplex (mixed) DNA 1: CAGCACCGACCTTGTGCTTTGGGAGTGCTGGTCCAAGGGCGTTAATGGACA DNA 2: GTCGGTGCTG,,binds
